The source of these data is the Human Domainome abundance scans (Beltran et al. 2025).

± gives the uncertainty stated by the source.

To fix the notation:
B1: Gamma-crystallin D, residues 90 to 170; numbered along this chain, P07320 (parent)
chain: IRLYEREDYRGQMIEFTEDCSCLQDRFRFNEIHSLNVLEGSWVLYELSNYRGRQYLLMPGDYRRYQDWGATNARVGSLRRV

In the series the parent is B1. Description: abundance fitness (aPCA) (normalised: wild type 0, dead -1); higher = more abundant; growth selection in yeast, the domain comes from the species named. Conditions: Homo sapiens.
In the case of M13D, the abundance fitness amounted to 0.034 ± 0.14.
Next, M13A: 0.08 ± 0.1; M13F: 0.009 ± 0.17.
As for M13E, the figure is -0.056 ± 0.16; as for M13W, -0.127 ± 0.099; as for M13L, 0.002 ± 0.081.
Next, M13R: -0.075 ± 0.073; M13S: 0.061 ± 0.14.
On to M13H, for which the abundance fitness was found to be 0.001 ± 0.17.
As for M13N, the figure is -0.042 ± 0.18; as for Q12T, -0.041 ± 0.096; as for Q12C, -0.352 ± 0.24.
As for Q12D, the figure is -0.019 ± 0.14; as for Q12G, 0.04 ± 0.066; as for Q12A, -0.055 ± 0.076.
Take Q12N: the abundance fitness turned out to be 0.102 ± 0.19.
As for Q12H, the figure is 0.021 ± 0.16; as for Q12I, -0.061 ± 0.17; as for Q12K, 0.052 ± 0.23.
As for Q12E, the figure is -0.105 ± 0.11.
As for Q12L, the figure is -0.173 ± 0.075; as for Q12Y, 0.007 ± 0.19.
In the case of Q12M, the abundance fitness came to 0.062 ± 0.14.
As for Q12W, the figure is -0.176 ± 0.12; as for Q12V, 0.1 ± 0.089; as for Q12F, -0.192 ± 0.17.
Next, Q12S: -0.008 ± 0.079; Q12P: 0 ± 0.073; I1V: -0.094 ± 0.27.
As to I1G, the abundance fitness is -0.344 ± 0.18.
Turning to I1A, the abundance fitness was determined as 0.139 ± 0.24.
In the case of I1L, the abundance fitness is -0.1 ± 0.34.
As for I1M, the figure is -0.021 ± 0.14; as for I1W, -1 ± 0.34; as for I1T, -0.37 ± 0.22.
Regarding I1N, the abundance fitness came to 0.12 ± 0.31.
For I1F, the abundance fitness is -0.462 ± 0.45.
As for T17P, the figure is 0.152 ± 0.082; as for T17N, -0.001 ± 0.25; as for T17R, 0.074 ± 0.064.
Next, T17I: 0.073 ± 0.11.
T17F: the abundance fitness was 0.08 ± 0.14.
Next, T17D: -0.012 ± 0.14; T17G: 0.016 ± 0.064.
Next, T17Y: 0.004 ± 0.22; T17C: 0.007 ± 0.14.
As for T17A, the figure is -0.177 ± 0.071; as for T17W, -0.068 ± 0.099; as for T17Q, -0.11 ± 0.11.
Consider T17L, for which the abundance fitness was 0.001 ± 0.069.
Next, T17M: -0.172 ± 0.16.
As for T17K, the figure is -0.061 ± 0.13.
For the variant T17E, the abundance fitness was -0.089 ± 0.095.
Take T17S: the abundance fitness was -0.022 ± 0.063.
Next, T17V: 0.005 ± 0.064; E5N: -0.096 ± 0.31; E5M: 0.051 ± 0.17.
As for E5V, the figure is 0.053 ± 0.084; as for E5I, 0.079 ± 0.21; as for E5R, 0.023 ± 0.068.
As for E5G, the figure is -0.025 ± 0.07.
As to E5Y, the abundance fitness worked out at 0.167 ± 0.19.
Next, E5K: 0.112 ± 0.088; E5W: 0.154 ± 0.1.
As for E5T, the figure is -0.146 ± 0.12; as for E5H, -0.176 ± 0.3.
As for E5A, the figure is -0.086 ± 0.09; as for E5C, -0.179 ± 0.22.
Turning to E5P, the abundance fitness worked out at 0.027 ± 0.099.
In the case of E5Q, the abundance fitness is -0.013 ± 0.058.
Next, E5D: -0.013 ± 0.12.
Consider E5F, for which the abundance fitness is 0.002 ± 0.13.
As for E5S, the figure is 0.046 ± 0.071; as for R10L, -0.064 ± 0.096.
Next, R10Q: -0.069 ± 0.14; R10C: 0.046 ± 0.12; R10P: -1.07 ± 0.19.
Next, R10K: 0.226 ± 0.13; R10S: -0.138 ± 0.077.
Regarding R10F, the abundance fitness was 0.025 ± 0.098.
As for R10E, the figure is 0.059 ± 0.14; as for R10Y, -0.087 ± 0.18; as for R10V, -0.005 ± 0.069.
Next, R10I: 0.074 ± 0.21; R10G: -0.004 ± 0.064; R10T: -0.034 ± 0.1.
Consider R10D, for which the abundance fitness was -0.118 ± 0.14.
As for R10A, the figure is -0.093 ± 0.057; as for R10N, 0.077 ± 0.24; as for R10W, -0.027 ± 0.1.
Next, R10M: -0.026 ± 0.12; G11N: -0.094 ± 0.16; G11A: 0.035 ± 0.073.
Next, G11W: -1.01 ± 0.18.
In the case of G11S, the abundance fitness is -0.1 ± 0.083.
As to G11P, the abundance fitness was -0.521 ± 0.12.
Next, Y9N: 0.217 ± 0.14; Y9S: 0.175 ± 0.078.
As for Y9E, the figure is 0.082 ± 0.073.
Next, Y9W: 0.036 ± 0.066.
With Y9T, the abundance fitness came out at 0.179 ± 0.12.
For Y9P, the abundance fitness is -0.529 ± 0.12.
Next, Y9D: -0.076 ± 0.14.
Next, Y9F: 0.104 ± 0.19.
As for Y9C, the figure is 0.194 ± 0.13; as for Y9K, 0.001 ± 0.19.
Y9Q: the abundance fitness turned out to be 0.07 ± 0.11.
As for Y9M, the figure is 0.064 ± 0.18; as for Y9H, 0.19 ± 0.36.
Take Y9V: the abundance fitness was -0.396 ± 0.073.
Next, Y9I: 0.112 ± 0.2.
As for Y9G, the figure is 0.06 ± 0.053; as for Y9R, 0.204 ± 0.058.
Consider D19F, for which the abundance fitness turned out to be 0.004 ± 0.15.
In the case of D19Q, the abundance fitness was 0.041 ± 0.16.
Take D19E: the abundance fitness worked out at 0.035 ± 0.13.
As for D19P, the figure is -0.003 ± 0.091; as for D19M, -0.06 ± 0.094.
Next, D19N: -0.058 ± 0.29.
For D19H, the abundance fitness was -0.033 ± 0.17.
Next, D19Y: -0.155 ± 0.11.
As for D19A, the figure is -0.116 ± 0.11; as for D19K, -0.144 ± 0.18; as for D19T, 0.039 ± 0.11.
Next, D19I: -0.249 ± 0.13; D19V: -0.087 ± 0.075; D19W: -0.108 ± 0.11.
Turning to D19S, the abundance fitness is -0.115 ± 0.11.
As for D19R, the figure is -0.129 ± 0.069; as for D19C, -0.065 ± 0.19; as for D19L, -0.169 ± 0.085.
Next, D8S: -0.03 ± 0.075; D8E: 0.015 ± 0.12; D8C: 0.05 ± 0.13.
As for D8T, the figure is -0.016 ± 0.096; as for D8Q, 0.097 ± 0.16.
Consider D8G, for which the abundance fitness was -0.004 ± 0.074.
On to D8K, for which the abundance fitness was 0.111 ± 0.14.
Next, D8L: 0.025 ± 0.092.
On to D8H, for which the abundance fitness was -0.086 ± 0.17.
Next, D8M: -0.006 ± 0.13; D8A: -0.079 ± 0.095; D8F: 0.085 ± 0.2.
As for D8N, the figure is -0.342 ± 0.18; as for D8I, -0.152 ± 0.23.
On to D8R, for which the abundance fitness was found to be 0.025 ± 0.072.
Next, D8W: -0.153 ± 0.098.
As for D8P, the figure is 0.026 ± 0.12; as for D8V, -0.049 ± 0.09.
